# Experimental data reported in US20180327506A1 (AbbVie / Abbott, published 2018).
# Read-outs that look alike come from different tables or passages of the source.
# T1: full-length mature cynomolgus EMR2 (residues Q24-N816) with N-terminal aspartic acid/lysine epitope tag, … (cynomolgus monkey (Macaca fascicularis), UniProt A0A2K5WL23 21-816)
# T1 sequence: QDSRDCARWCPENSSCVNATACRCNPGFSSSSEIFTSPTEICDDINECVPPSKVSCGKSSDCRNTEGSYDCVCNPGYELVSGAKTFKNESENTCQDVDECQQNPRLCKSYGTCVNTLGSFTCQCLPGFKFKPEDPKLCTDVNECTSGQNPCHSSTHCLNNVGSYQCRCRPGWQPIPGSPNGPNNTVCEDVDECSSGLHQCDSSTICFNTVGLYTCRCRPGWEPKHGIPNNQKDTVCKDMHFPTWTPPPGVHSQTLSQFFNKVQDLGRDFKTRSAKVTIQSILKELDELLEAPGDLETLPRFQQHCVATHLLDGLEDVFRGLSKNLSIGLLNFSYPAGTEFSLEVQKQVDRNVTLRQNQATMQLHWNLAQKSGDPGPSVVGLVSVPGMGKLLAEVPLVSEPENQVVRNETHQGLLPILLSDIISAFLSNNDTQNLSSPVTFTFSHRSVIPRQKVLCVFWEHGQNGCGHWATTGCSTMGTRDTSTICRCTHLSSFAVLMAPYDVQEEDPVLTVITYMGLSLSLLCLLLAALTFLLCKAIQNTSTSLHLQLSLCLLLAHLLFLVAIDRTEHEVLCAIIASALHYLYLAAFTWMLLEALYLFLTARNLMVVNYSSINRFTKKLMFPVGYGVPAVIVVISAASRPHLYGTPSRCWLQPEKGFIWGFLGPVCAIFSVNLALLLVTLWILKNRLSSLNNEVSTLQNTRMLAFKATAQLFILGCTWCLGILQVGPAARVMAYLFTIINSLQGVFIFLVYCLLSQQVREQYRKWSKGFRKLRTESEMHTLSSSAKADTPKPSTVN
# T2: full-length mature human EMR2 (residues Q24-N823) with N-terminal aspartic acid/lysine epitope tag, … (human, UniProt Q9UHX3 24-823)
# T2 sequence: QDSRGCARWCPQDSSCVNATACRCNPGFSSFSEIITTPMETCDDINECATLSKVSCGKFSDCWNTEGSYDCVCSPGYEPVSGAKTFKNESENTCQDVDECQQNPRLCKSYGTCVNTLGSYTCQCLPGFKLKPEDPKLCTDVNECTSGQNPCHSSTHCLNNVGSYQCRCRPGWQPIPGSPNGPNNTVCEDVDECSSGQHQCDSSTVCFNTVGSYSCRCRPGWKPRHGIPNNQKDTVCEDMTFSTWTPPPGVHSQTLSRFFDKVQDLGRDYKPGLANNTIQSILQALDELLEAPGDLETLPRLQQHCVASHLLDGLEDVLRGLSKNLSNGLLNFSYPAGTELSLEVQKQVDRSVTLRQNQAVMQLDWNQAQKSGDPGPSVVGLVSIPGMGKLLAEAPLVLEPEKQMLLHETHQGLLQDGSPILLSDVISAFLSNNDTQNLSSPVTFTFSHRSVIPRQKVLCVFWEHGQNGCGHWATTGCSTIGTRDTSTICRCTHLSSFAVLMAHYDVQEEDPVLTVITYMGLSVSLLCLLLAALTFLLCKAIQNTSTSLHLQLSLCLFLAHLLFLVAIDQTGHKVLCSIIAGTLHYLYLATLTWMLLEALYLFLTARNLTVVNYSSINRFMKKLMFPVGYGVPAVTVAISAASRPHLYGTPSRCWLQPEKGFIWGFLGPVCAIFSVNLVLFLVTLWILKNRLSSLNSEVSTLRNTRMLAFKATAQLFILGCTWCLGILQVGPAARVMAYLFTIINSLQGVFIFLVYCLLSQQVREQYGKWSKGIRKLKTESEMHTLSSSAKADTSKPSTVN
# T3: full-length mature human CD97 (residues Q21-I845) with N-terminal aspartic acid/lysine epitope tag, … (human, UniProt P48960 21-835)
# T3 sequence (looked up): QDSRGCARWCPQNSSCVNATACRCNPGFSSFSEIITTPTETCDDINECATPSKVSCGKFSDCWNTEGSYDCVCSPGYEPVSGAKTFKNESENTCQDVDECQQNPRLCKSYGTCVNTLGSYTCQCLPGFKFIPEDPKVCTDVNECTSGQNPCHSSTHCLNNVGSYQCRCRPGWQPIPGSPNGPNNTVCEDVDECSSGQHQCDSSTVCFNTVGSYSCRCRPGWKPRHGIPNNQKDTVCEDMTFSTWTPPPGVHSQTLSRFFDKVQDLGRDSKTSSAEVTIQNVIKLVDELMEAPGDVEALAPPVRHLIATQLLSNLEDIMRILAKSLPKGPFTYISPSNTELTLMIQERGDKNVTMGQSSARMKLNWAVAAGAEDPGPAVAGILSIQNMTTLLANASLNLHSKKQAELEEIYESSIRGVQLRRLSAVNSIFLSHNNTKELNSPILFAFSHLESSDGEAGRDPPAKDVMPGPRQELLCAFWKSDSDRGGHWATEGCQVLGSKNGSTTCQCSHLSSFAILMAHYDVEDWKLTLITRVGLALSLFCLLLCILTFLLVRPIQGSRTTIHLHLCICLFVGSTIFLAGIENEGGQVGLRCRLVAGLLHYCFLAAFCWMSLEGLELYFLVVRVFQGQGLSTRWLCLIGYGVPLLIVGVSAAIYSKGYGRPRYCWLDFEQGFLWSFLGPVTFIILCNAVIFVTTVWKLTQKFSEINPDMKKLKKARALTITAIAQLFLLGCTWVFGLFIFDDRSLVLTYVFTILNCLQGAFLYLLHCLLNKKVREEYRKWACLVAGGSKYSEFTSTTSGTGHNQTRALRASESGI
# Tests used:
# [1] = biological target: T1, full-length mature cynomolgus EMR2 …; experiment: cell-based or functional assay
# [2] = biological target: T2, full-length mature human EMR2 (residues …); experiment: cell-based or functional assay
# [3] = biological target: T3, full-length mature human CD97 (residues …); experiment: cell-based or functional assay
# [4] = biological target: T1, full-length mature cynomolgus EMR2 …; experiment: flow cytometry on transduced HEK293T; 293 naive MFI 67.6
# Method: (§1) The exemplary antibodies were also tested using flow cytometry to determine their ability to associate with hEMR2, cEMR2 and CD97 expressed on the surface of cells.
# [5] = biological target: T2, full-length mature human EMR2 (residues …); experiment: as above
# Method: as §1
# [6] = biological target: T3, full-length mature human CD97 (residues …); experiment: as above
# Method: as §1
# [7] = biological target: T3, full-length mature human CD97 (residues …); experiment: flow cytometry on HEK293T cells overexpressing hCD97
# Method: as §1
# [8] = biological target: T1, full-length mature cynomolgus EMR2 …; experiment: cell-based or functional assay; remark: listed apart in the source
# [9] = biological target: T2, full-length mature human EMR2 (residues …); experiment: cell-based or functional assay; remark: listed apart in the source
# [10] = biological target: T3, full-length mature human CD97 (residues …); experiment: cell-based or functional assay; remark: listed apart in the source
# [11] = biological target: T1, full-length mature cynomolgus EMR2 …; experiment: flow cytometry on transduced HEK293T; 293 naive MFI 102
# Method: as §1
# [12] = biological target: T2, full-length mature human EMR2 (residues …); experiment: as above
# Method: as §1
# [13] = biological target: T3, full-length mature human CD97 (residues …); experiment: as above
# Method: as §1
Binder,"% live, FAB-saporin killing assay [1]","% live, FAB-saporin killing assay [2]","% live, FAB-saporin killing assay [3]",FC MFI [4],FC MFI [5],FC MFI [6],binding result [7],"% live, FAB-saporin killing assay [8]","% live, FAB-saporin killing assay [9]","% live, FAB-saporin killing assay [10]",FC MFI [11],FC MFI [12],FC MFI [13]
"SC93.160 (antibody, IgG2a, V domains shown, murine, IgG2a) VH: QILLVQSGPELKKPGETVKISCKASGYTFTDYGIHWVKQAPGKGLKWMGWINTKTGVPTYADDFKGRFAFSLETSASTAYLQINNLKIEDTATYFCAGGNSLYYGSRPYWGQGTLVTVSA VL: DIVMTQSPSSLTVTAGEKVTMSCKSSQSLLNSGNQKNYLTWYQQKPGQPPKLLIYWASTRESGVPDRFTGSGSGTDFTLTISSVQAEDLAVYYCQNDYSYPTFGSGTKLELK",101%,96.8%,105%,62.6,26000,61.8,–,–,–,–,–,–,–
"SC93.266 (antibody, V domains shown, Murine hybridoma antibody) VH: EVKLEESGGGLVQPGGSMKLSCAASGFTFSDAWMDWVRQSPEKGLEWVAEIRSKVNNHETYYAESVKGRFTISRDDSKSSVYLQMNSLRAEDTGIYYCIRNDYFDYWGQGTTLTVSS VL: DIQMTQTTSSLSASLGDRVTISCSASQGIRNYLNWYQQKPDGTVKLLIYYTSRLHSGVPSRFSGSGSGTDYSLTISNLEPEDIATYYCQQYGKLPYTFGGGTKLEIN",–,–,–,–,–,–,no binding,12.7%,13.1%,99.2%,40400,49900,98.3
